# B1: KirBac3.1 S129R mutant channel (natural protein)
# chain: MTGGMKPPARKPRILNSDGSSNITRLGLEKRGWLDDHYHDLLTVSWPVFITLITGLYLVTNALFALAYLACGDVIENARPGSFTDAFFFSVQTMATIGYGKLIPIGPLANTLVTLEALCGMLGLAVAARLIYARFTRPTAGVLFSSRMVISDFEGKPTLMMRLANLRIEQIIEADVHLVLVRSEISQEGMVFRRFHDLTLTRSRSPIFSLSWTVMHPIDHHSPIYGETDETLRNSHSEFLVLFTGHHEAFAQNVHARHAYSCDEIIWGGHFVDVFTTLPDGRRALDLGKFHEIAQ
# Target: the molecule itself
# Experiment: crystal structure
protein,measurement,value
B1,stoichiometry N,4
